Source: patent US20250333484A1 (US Dept. of Health and Human Services, published 2025)

Key:
[1] = target: T1, 676 aa long full-length GP probe (EBOV glycoprotein) (Ebola virus (EBOV), UniProt Q05320 33-676); test: BLI kinetics on full-length GP with the mAb114 site blocked
T1 sequence: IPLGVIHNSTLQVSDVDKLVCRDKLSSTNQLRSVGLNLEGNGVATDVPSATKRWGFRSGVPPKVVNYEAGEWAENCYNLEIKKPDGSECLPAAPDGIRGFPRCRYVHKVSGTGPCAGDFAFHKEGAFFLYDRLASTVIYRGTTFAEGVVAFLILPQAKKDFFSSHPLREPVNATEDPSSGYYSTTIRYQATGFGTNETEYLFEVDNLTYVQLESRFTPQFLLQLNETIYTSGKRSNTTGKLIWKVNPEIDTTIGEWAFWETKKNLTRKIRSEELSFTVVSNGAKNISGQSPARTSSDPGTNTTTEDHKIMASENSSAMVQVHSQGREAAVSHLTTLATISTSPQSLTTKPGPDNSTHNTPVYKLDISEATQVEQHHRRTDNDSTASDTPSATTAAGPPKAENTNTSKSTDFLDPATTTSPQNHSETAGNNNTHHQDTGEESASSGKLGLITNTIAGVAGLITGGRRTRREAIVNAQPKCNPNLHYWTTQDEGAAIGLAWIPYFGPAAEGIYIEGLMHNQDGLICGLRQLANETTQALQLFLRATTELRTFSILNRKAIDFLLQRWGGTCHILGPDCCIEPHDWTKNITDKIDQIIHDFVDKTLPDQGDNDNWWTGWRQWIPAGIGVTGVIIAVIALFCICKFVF

[2] = target: T1, 676 aa long full-length GP probe (EBOV …)
[3] = target: T1, 676 aa long full-length GP probe (EBOV …); test: BLI saturation binding, full probe on sensor

B1: FabA09 (Fab of parental mAbA09) (Fab, V domains shown)
VH: QVQLQESGPGLVKPSETLSLTCVVSGGILSSFYWNWIRQPPGKGLEWIGNIYYSGSPNYNASFQSRVAISVDTSKNQISLNLKSVTAADTAMYYCVRASRAYLWGSYRPTALDLWGQGSLVTVSS
VL: SYELTQPPSVSVSPGQTATITCSGDKLGDKYTSWFQQRPGQSPLLVIYQDNKRPSGLPARFSGSNSGNTATLTISGTQAMDEADYLCQVWDSGAVFGGGTKLTVL
- fold on-rate against BiSp107 [1]: 3.4 fold

B2: BiSp107 (mAb114×A09) CrossMab bispecific IgG (bispecific antibody)
heavy 1: not shown
light 1: DIQMTQSPSSLSASVGDRITITCRASQAFDNYVAWYQQRPGKVPKLLISAASALHAGVPSRFSGSGSGTHFTLTISSLQPEDVATYYCQNYNSAPLTFGGGTKVEIKSSASTKGPSVFPLAPSSKSTSGGTAALGCLVKDYFPEPVTVSWNSGALTSGVHTFPAVLQSSGLYSLSSVVTVPSSSLGTQTYICNVNHKPSNTKVDKKVEPKSC
heavy 2: not shown
light 2: SYELTQPPSVSVSPGQTATITCSGDKLGDKYTSWFQQRPGQSPLLVIYQDNKRPSGLPARFSGSNSGNTATLTISGTQAMDEADYLCQVWDSGAVFGGGTKLTVLGQPKAAPSVTLFPPSSEELQANKATLVCLISDFYPGAVTVAWKADSSPVKAGVETTTPSKQSNNKYAASSYLSLTPEQWKSHRSYSCQVTHEGSTVEKTVAPTECS
- fold difference in binding kinetics against parental Fab [2]: ≤ 3 fold

B3: mAb114 (parental IgG) (antibody, V domains shown)
VH: EVQLVESGGGLIQPGGSLRLSCAASGFALRMYDMHWVRQTIDKRLEWVSAVGPSGDTYYADSVKGRFAVSRENAKNSLSLQMNSLTAGDTAIYYCVRSDRGVAGLFDSWGQGILVTVSS
VL: DIQMTQSPSSLSASVGDRITITCRASQAFDNYVAWYQQRPGKVPKLLISAASALHAGVPSRFSGSGSGTHFTLTISSLQPEDVATYYCQNYNSAPLTFGGGTKVEIKS
- fold binding response at saturation against A09 [3]: 2 fold
